Where no end group is shown, it is not given here.
Tests used:
[1] = target: Monoclonal antibody 3E7; test: solution RIA, displacement of [125I]b-endorphin from mAb 3E7
[2] = target: 3E7 antibody; test: Solution radioimmunoassay, inhibition of [125I]b-endorphin binding to mAb 3E7; details: for IC50: geometric mean, 30 pM [125I]b-endorphin, 20% tracer bound, 18 hr. incubation, 0.25 μg/ml 3E7; for Affinity Relative to YGGFL (SEQ ID NO: 125): relative to YGGFL = 1
Description: The peptides were synthesized according to well known protocols, as described in, for example, Merrifield, Science 232:341-347 (1986), incorporated by reference herein. A solution radioimmunoassay was used to estimate the binding affinities of peptides for mAb 3E7. Solution radioimmunoassay using [^125I]b-endorphin (20,000 cpm) and purified 3E7 antibody (0.25 μg/ml) was conducted as described by Meo et al., supra, with the exception that the final volume was 150 μl. Antibody-bound and free [^125I]b-endorphin were separated by addition of activated charcoal followed by centrifugation, as described in Ghazarassian et al., Life Sciences 27:75-86 (1980). Antibody-bound [^125I]b-endorphin in the supernatant was measured in a gamma counter. […] J. Physiol. 235:E97-E102 (1978).

[3] = tested on: Monoclonal antibody 3E7; details: Meo et al., Herz et al., Gramsch et al.; cited from earlier work
[4] = target: Monoclonal antibody 3E7; test: solution RIA, 30 pM tracer, 18 hr incubation
[5] = target: Monoclonal antibody 3E7; test: binding experiments with mAb 3E7 and [3H]YGGFL, room temperature

GFL (peptide)
Affinity Relative to YGGFL [1]: < 7.1e-06

GGF (peptide)
Affinity Relative to YGGFL [1]: < 7.1e-06

YAGFAQ [YAGFAQ]
IC50 [2]: 8300 nM
Affinity Relative to YGGFL (SEQ ID NO: 125) [2]: 0.00086

YGFWGM [YGFWGM]
IC50 [2]: 350 nM
Affinity Relative to YGGFL (SEQ ID NO: 125) [2]: 0.020

YGG (peptide)
Affinity Relative to YGGFL [1]: < 7.1e-06

YGGF [Tyr-Gly-Gly-Phe, reference compound]
IC50 [2]: 190 nM
Affinity Relative to YGGFL (SEQ ID NO: 125) [2]: 0.037

YGGFL [Tyr-Gly-Gly-Phe-Leu, reference compound]
binding to antibody 3E7 [3]: binds tightly
IC50 [2]: 7.1 nM
Affinity Relative to YGGFL (SEQ ID NO: 125) [2]: 1

YGGFM: met-enkephalin, natural opioid peptide
binding to antibody 3E7 [3]: binds tightly

YGGFPD [YGGFPD]
IC50 [2]: 2300 nM
Affinity Relative to YGGFL (SEQ ID NO: 125) [2]: 0.0031

YGGWAG [YGGWAG]
IC50 [2]: 7800 nM
Affinity Relative to YGGFL (SEQ ID NO: 125) [2]: 0.00091

YGNWTY [YGNWTY]
IC50 [2]: 7800 nM
Affinity Relative to YGGFL (SEQ ID NO: 125) [2]: 0.00091

YGPFWS [YGPFWS]
IC50 [2]: 1900 nM
Affinity Relative to YGGFL (SEQ ID NO: 125) [2]: 0.0037

[125I-tyr28]b-endorphin (from UniProt P01189 237-267) (peptide)
tracer bound [4]: 20%

YGGWAG
Affinity Relative to YGGFL [1]: 0.00091
IC50 [1]: 7800 nM

YGGF
Affinity Relative to YGGFL [1]: 0.037
IC50 [1]: 190 nM

YGFWGM
Affinity Relative to YGGFL [1]: 0.02
IC50 [1]: 350 nM

GGFL
Affinity Relative to YGGFL [1]: < 7.1e-06

YGGFL
Affinity Relative to YGGFL [1]: 1
IC50 [1]: 7.1 nM
dissociation t1/2 [5]: 45 s

YGPFWS
Affinity Relative to YGGFL [1]: 0.0037
IC50 [1]: 1900 nM

YGGFPD
Affinity Relative to YGGFL [1]: 0.0031
IC50 [1]: 2300 nM

YAGFAQ
Affinity Relative to YGGFL [1]: 0.00086
IC50 [1]: 8300 nM

YGNWTY
Affinity Relative to YGGFL [1]: 0.00091
IC50 [1]: 7800 nM
